In publication PMC4615246 (Nucleus, 2015):

T1: LacI-CFP-Nup153 (human, UniProt P49790 1-1475)
T1 sequence: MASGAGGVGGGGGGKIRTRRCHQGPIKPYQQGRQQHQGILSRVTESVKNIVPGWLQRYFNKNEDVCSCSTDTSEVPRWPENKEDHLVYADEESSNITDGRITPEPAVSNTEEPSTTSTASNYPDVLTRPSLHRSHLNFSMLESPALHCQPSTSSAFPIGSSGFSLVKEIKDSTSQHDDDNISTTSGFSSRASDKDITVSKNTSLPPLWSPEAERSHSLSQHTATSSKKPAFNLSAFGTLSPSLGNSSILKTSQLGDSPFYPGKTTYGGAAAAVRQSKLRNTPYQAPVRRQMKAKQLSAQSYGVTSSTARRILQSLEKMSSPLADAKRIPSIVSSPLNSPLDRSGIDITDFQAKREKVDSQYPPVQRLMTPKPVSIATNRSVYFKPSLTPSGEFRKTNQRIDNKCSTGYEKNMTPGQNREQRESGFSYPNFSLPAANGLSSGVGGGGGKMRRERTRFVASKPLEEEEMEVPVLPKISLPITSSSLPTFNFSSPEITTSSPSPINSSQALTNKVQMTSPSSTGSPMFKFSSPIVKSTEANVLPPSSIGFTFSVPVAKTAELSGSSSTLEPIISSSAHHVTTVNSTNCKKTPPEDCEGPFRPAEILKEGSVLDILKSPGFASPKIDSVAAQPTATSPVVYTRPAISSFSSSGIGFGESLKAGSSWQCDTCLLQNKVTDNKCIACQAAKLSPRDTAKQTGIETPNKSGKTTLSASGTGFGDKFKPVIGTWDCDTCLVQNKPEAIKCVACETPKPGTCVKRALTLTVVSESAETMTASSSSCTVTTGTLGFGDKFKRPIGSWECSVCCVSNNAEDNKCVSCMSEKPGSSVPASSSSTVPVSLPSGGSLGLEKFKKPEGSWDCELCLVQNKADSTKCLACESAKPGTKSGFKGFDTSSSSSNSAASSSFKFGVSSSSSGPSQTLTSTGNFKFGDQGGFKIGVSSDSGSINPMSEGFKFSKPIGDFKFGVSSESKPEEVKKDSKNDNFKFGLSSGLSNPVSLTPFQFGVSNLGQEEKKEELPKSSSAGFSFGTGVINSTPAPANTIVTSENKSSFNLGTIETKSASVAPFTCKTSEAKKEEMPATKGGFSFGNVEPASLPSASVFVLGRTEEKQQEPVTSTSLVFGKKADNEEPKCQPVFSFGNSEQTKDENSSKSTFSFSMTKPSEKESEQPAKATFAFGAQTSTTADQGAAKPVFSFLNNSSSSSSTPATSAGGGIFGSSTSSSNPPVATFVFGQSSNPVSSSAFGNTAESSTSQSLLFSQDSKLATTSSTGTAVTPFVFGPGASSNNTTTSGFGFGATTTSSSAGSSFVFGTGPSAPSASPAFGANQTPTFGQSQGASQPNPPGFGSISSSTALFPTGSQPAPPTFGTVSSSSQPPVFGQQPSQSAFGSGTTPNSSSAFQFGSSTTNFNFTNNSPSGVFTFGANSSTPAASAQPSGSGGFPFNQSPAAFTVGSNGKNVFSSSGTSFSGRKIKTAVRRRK

T2: LacI-CFP-Nup107 (human, UniProt P57740 1-925)
T2 sequence: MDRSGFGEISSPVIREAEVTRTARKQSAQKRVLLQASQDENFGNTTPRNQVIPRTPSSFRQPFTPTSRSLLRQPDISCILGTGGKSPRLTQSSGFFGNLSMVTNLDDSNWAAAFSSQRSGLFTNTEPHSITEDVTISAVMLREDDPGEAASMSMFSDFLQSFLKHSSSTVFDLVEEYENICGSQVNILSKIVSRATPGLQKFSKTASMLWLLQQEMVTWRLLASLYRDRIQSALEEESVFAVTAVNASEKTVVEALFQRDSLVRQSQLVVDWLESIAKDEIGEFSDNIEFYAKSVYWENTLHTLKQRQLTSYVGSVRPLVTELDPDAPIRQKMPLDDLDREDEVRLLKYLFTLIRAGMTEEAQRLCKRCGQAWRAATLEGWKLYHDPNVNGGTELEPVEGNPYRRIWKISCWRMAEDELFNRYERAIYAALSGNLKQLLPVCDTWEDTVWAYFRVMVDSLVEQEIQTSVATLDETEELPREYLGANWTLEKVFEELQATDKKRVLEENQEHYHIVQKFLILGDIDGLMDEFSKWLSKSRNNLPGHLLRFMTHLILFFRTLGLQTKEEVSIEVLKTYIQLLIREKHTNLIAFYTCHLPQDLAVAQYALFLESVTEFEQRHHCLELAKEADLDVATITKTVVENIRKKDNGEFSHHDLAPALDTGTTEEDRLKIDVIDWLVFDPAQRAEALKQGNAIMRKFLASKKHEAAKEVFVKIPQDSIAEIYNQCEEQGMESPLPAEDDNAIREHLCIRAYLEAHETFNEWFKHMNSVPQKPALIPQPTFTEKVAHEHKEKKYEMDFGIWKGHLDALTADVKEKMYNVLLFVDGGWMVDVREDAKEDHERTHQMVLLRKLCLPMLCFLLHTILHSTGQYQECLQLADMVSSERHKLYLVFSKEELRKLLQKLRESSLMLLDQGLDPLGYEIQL

B1: Nup53 (endogenous) (natural protein)
chain: MAAFAVEPQGPALGSEPMMLGSPTSPKPGVNAQFLPGFLMGDLPAPVTPQPRSISGPSVGVMEMRSPLLAGGSPPQPVVPAHKDKSGAPPVRSIYDDISSPGLGSTPLTSRRQPNISVMQSPLVGVTSTPGTGQSMFSPASIGQPRKTTLSPAQLDPFYTQGDSLTSEDHLDDSWVTVFGFPQASASYILLQFAQYGNILKHVMSNTGNWMHIRYQSKLQARKALSKDGRIFGESIMIGVKPCIDKSVMESSDRCALSSPSLAFTPPIKTLGTPTQPGSTPRISTMRPLATAYKASTSDYQVISDRQTPKKDESLVSKAMEYMFGW
B2: Nup160 (endogenous) (natural protein)
chain: MLHLSAAPPAPPPEVTATARPCLCSVGRRGDGGKMAAAGALERSFVELSGAERERPRHFREFTVCSIGTANAVAGAVKYSESAGGFYYVESGKLFSVTRNRFIHWKTSGDTLELMEESLDINLLNNAIRLKFQNCSVLPGGVYVSETQNRVIILMLTNQTVHRLLLPHPSRMYRSELVVDSQMQSIFTDIGKVDFTDPCNYQLIPAVPGISPNSTASTAWLSSDGEALFALPCASGGIFVLKLPPYDIPGMVSVVELKQSSVMQRLLTGWMPTAIRGDQSPSDRPLSLAVHCVEHDAFIFALCQDHKLRMWSYKEQMCLMVADMLEYVPVKKDLRLTAGTGHKLRLAYSPTMGLYLGIYMHAPKRGQFCIFQLVSTESNRYSLDHISSLFTSQETLIDFALTSTDIWALWHDAENQTVVKYINFEHNVAGQWNPVFMQPLPEEEIVIRDDQDPREMYLQSLFTPGQFTNEALCKALQIFCRGTERNLDLSWSELKKEVTLAVENELQGSVTEYEFSQEEFRNLQQEFWCKFYACCLQYQEALSHPLALHLNPHTNMVCLLKKGYLSFLIPSSLVDHLYLLPYENLLTEDETTISDDVDIARDVICLIKCLRLIEESVTVDMSVIMEMSCYNLQSPEKAAEQILEDMITIDVENVMEDICSKLQEIRNPIHAIGLLIREMDYETEVEMEKGFNPAQPLNIRMNLTQLYGSNTAGYIVCRGVHKIASTRFLICRDLLILQQLLMRLGDAVIWGTGQLFQAQQDLLHRTAPLLLSYYLIKWGSECLATDVPLDTLESNLQHLSVLELTDSGALMANRFVSSPQTIVELFFQEVARKHIISHLFSQPKAPLSQTGLNWPEMITAITSYLLQLLWPSNPGCLFLECLMGNCQYVQLQDYIQLLHPWCQVNVGSCRFMLGRCYLVTGEGQKALECFCQAASEVGKEEFLDRLIRSEDGEIVSTPRLQYYDKVLRLLDVIGLPELVIQLATSAITEAGDDWKSQATLRTCIFKHHLDLGHNSQAYEALTQIPDSSRQLDCLRQLVVVLCERSQLQDLVEFPYVNLHNEVVGIIESRARAVDLMTHNYYELLYAFHIYRHNYRKAGTVMFEYGMRLGREVRTLRGLEKQGNCYLAALNCLRLIRPEYAWIVQPVSGAVYDRPGASPKRNHDGECTAAPTNRQIEILELEDLEKECSLARIRLTLAQHDPSAVAVAGSSSAEEMVTLLVQAGLFDTAISLCQTFKLPLTPVFEGLAFKCIKLQFGGEAAQAEAWAWLAANQLSSVITTKESSATDEAWRLLSTYLERYKVQNNLYHHCVINKLLSHGVPLPNWLINSYKKVDAAELLRLYLNYDLLEEAVDLVSEYVDAVLGKGHQYFGIEFPLSATAPMVWLPYSSIDQLLQALGENSANSHNIALSQKILDKLEDYQQKVDKATRDLLYRRTL
B3: Nup62 (endogenous) (natural protein)
chain: MSGFNFGGTGAPTGGFTFGTAKTATTTPATGFSFSTSGTGGFNFGAPFQPATSTPSTGLFSLATQTPATQTTGFTFGTATLASGGTGFSLGIGASKLNLSNTAATPAMANPSGFGLGSSNLTNAISSTVTSSQGTAPTGFVFGPSTTSVAPATTSGGFSFTGGSTAQPSGFNIGSAGNSAQPTAPATLPFTPATPAATTAGATQPAAPTPTATITSTGPSLFASIATAPTSSATTGLSLCTPVTTAGAPTAGTQGFSLKAPGAASGTSTTTSTAATATATTTSSSSTTGFALNLKPLAPAGIPSNTAAAVTAPPGPGAAAGAAASSAMTYAQLESLINKWSLELEDQERHFLQQATQVNAWDRTLIENGEKITSLHREVEKVKLDQKRLDQELDFILSQQKELEDLLSPLEELVKEQSGTIYLQHADEEREKTYKLAENIDAQLKRMAQDLKDIIEHLNTSGAPADTSDPLQQICKILNAHMDSLQWIDQNSALLQRKVEEVTKVCEGRRKEQERSFRITFD
B4: Nup85 (endogenous) (natural protein)
chain: MEELDGEPTVTLIPGVNSKKNQMYFDWGPGEMLVCETSFNKKEKSEMVPSCPFIYIIRKDVDVYSQILRKLFNESHGIFLGLQRIDEELTGKSRKSQLVRVSKNYRSVIRACMEEMHQVAIAAKDPANGRQFSSQVSILSAMELIWNLCEILFIEVAPAGPLLLHLLDWVRLHVCEVDSLSADVLGSENPSKHDSFWNLVTILVLQGRLDEARQMLSKEADASPASAGICRIMGDLMRTMPILSPGNTQTLTELELKWQHWHEECERYLQDSTFATSPHLESLLKIMLGDEAALLEQKELLSNWYHFLVTRLLYSNPTVKPIDLHYYAQSSLDLFLGGESSPEPLDNILLAAFEFDIHQVIKECSIALSNWWFVAHLTDLLDHCKLLQSHNLYFGSNMREFLLLEYASGLFAHPSLWQLGVDYFDYCPELGRVSLELHIERIPLNTEQKALKVLRICEQRQMTEQVRSICKILAMKAVRNNRLGSALSWSIRAKDAAFATLVSDRFLRDYCERGCFSDLDLIDNLGPAMMLSDRLTFLGKYREFHRMYGEKRFADAASLLLSLMTSRIAPRSFWMTLLTDALPLLEQKQVIFSAEQTYELMRCLEDLTSRRPVHGESDTEQLQDDDIETTKVEMLRLSLARNLARAIIREGSLEGS

target: T1, LacI-CFP-Nup153; experiment: LacI/LacO array recruitment in cells

Binder	percent of transfected cells showing colocalization
B1	14%
B2	33%
B3	56%
B4	58%

target: T2, LacI-CFP-Nup107; experiment: LacI/LacO array recruitment in cells

Binder	percent of transfected cells showing colocalization
B2	39%
B3	24%
B4	88%
